Key:
[1] = biological target: AviTag-238D2 (biotinylated, c-myc-tagged 238D2); test: BLI
[2] = biological target: AviTag-3SM5 (biotinylated, c-myc-tagged 3SM5 VH); test: BLI
[3] = biological target: T1, SNAP-tagged hCXCR4 labelled with Lumi4-Terbium (human, UniProt P61073 1-352, Lumi4-Terbium on the SNAP tag); test: AlphaScreen or HTRF; conditions: one partner purified
T1 construct: also called SNAP-CXCR4; Terbium-linked SNAP-tagged CXCR4
T1 sequence (P61073 whole entry): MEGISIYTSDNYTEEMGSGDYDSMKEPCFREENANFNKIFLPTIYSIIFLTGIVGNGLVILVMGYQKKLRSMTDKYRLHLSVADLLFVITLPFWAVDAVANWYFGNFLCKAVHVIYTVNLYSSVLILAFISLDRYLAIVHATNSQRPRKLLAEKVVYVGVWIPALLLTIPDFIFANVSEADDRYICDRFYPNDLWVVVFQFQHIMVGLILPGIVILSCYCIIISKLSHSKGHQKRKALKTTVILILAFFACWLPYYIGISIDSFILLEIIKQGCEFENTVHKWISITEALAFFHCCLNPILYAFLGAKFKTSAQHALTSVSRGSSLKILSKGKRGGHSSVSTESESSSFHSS

For “Influenza A H1N1 (A/SOLOMON ISLANDS/3/2006): hemagglutinin H1 as a fusion protein with the neuraminidase N1”, the Kd [1] was 119 nM and the Kd [2] was 236 nM.

B1: 238D2 nanobody (bacterially produced, c-myc- and His-tagged) (VHH)
VHH: EVQLVESGGGLVQTGGSLRLSCAASGFTFSSYAMSWVRQAPGKGLEWVSGIKSSGDSTRYAGSVKGRFTISRDNAKNMLYLQMYSLKPEDTAVYYCAKSRVSRTGLYTYDNRGQGTQVTVSS
notes: also called anti-CXCR4 Nb
Work on B1 yielded an IC50 [3] of 58.4 nM.

B2: 3SM5 VH domain (bacterially produced, c-myc- and His-tagged) (domain or fragment)
VH: MEVQLVQSGAEVKKPGASVKVSCKASGYTFTDYHINWVRQAPGQGLEWMGWIHPNSGDTNYAQKFQGWVTMTRDTAISTAYMEVNGLKSDDTAVYYCARGGLEPRSVDYYYYGMDVWGQGTTVTVSS
notes: also called VH of CH65
For B2, the IC50 [3] was 69.1 nM.

B3: 4N1H VHH (bacterially produced, c-myc- and His-tagged) (VHH)
VHH: EVQLQESGGGLVQAGASLKLSCAASGRTFSSYAMGWFRQAPGKEREFVAAISRSGGDTKYADSVKGRFAISRDNDKNTVWLRMNSLKPEDTAVYYCAATTYASLSDTYIGEHIYDDWGQGTQVTVSS
notes: also called cAB-F11N
B3 was tested, and the IC50 [3] was 39.8 nM.

— article PMC9456297 (International Journal of Molecular Sciences, 2022)
